For assay [1], the target named is BC2T-mSA2-myc displayed on E. coli as a fusion to OmpX. The experiment in a line: flow cytometry, induced E. coli displaying BC2T-mSA2-myc; mean of triplicate.
The target in assay [2] is HA-mSA2-BC2T-myc fusion displayed on yeast at the C-terminus of Aga2 (yeast) (UniProt P32781). Briefly: flow cytometry, induced yeast displaying HA-mSA2-BC2T-myc; mean of triplicate. For orientation: Flow cytometry measures light scatter and fluorescence of single cells or particles in a stream.
For assay [3], the target named is BC2T-mSA2-myc displayed on E. coli as a fusion to OmpX. Briefly: flow cytometry, induced E. coli displaying BC2T-mSA2-myc; co-treatment with Myc-ab-FITC; mean of triplicate.
Assay [4] addresses HA-mSA2-BC2T-myc fusion displayed on yeast at the C-terminus of Aga2 (yeast) (UniProt P32781). Briefly: flow cytometry, induced yeast displaying HA-mSA2-BC2T-myc; co-treatment with HA-ab-FITC; mean of triplicate.
The target is the same in assay [5]. The experiment in a line: flow cytometry, induced yeast displaying HA-mSA2-BC2T-myc; co-treatment with Myc-ab-FITC; mean of triplicate.
The target in assay [6] is Green Fluorescent Protein (GFP), biotinylated and immobilized on streptavidin coated plates [GFP: P42212]. The experiment in a line: competition ELISA on immobilized GFP; 1:1 mixture with GFPnb-BC2T as competitor, against GFPnb-BC2T alone; BC2nb-nLuc read-out. Background: In an ELISA, binding on a coated surface is turned into a signal by an enzyme label.

For the substance BC2 nanobody-Cy5 conjugate (VHH), the Cy5 (+) was determined as 98.6% in assay [1]; 71.1% in assay [2]; 98.7% in assay [3]; 71.2% in assay [4]; 70.9% in assay [5].
Regarding “BC2 nanobody-GFP fusion protein (from UniProt P42212 1-238) (VHH)”, the FITC or GFP (+) in assay [1] turned out to be 98.1%; in assay [2], 59.6%.
As for “GFP-binding nanobody-His6 fusion protein (VHH)”, the decrease in luminescence in assay [6] turned out to be 50%.
